Reference: the supplement of paper PMC10567573

B1: TLE6 (parent)
chain: FWHDTLTEQLWRIFAGVHDEKAKP
B2: VTI1B (parent)
chain: NKLLLSIIILLELAILGGLVYYKF

Variants of: B1
Assay: protein stability index of a GFP-peptide fusion (GPS, HEK-293T) (PSI 1-6); higher = more stable
Conditions: c terminus: a fixed tail appended
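Further: lentivirally expressed fusions sorted by FACS into six bins by GFP to DsRed ratio, PSI derived from sequencing read proportions per bin multiplied by bin number.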

Protein stability index, by site and new letter:
F1: H 1.96; C 2.42; V 1.8; G 2.32; P 2.18; E 1.81; K 2.44; T 2.01; Q 2.54; R 2.48; Y 2.05; L 1.93; S 1.91; N 2.12; D 2.17; W 1.82; I 1.95; A 2.28; M 2.12

Variants of: B2
Assay: as above
Conditions: c terminus: a fixed tail appended

Protein stability index, by site and new letter:
L10: E 3.16; F 2.6; N 2.09; W 3.4; S 4.51; A 2.44; M 2.86; T 1.93; Q 1.98; H 3.04; P 3.62; D 2.71; C 3.11; G 2.46; I 2.55; Y 2.8; R 2.63; K 3.36; V 3.92
L11: Q 3.26; P 2.43; N 3.97; R 3.68; K 2.59; T 2.53; G 2.94; D 3.12; C 2.36; M 3.36; S 3.88; F 2.39; H 4.16; E 3.84; V 1.49; W 3.2
I9: K 3.22; V 3.42; L 2.16; P 3.12; E 2.85; F 2.03; Y 2.38; G 2.8; H 2.47; Q 3.18; M 3.54; D 3.1; T 2.58; C 2.97; W 1.51; S 4.04; N 3.49; R 3.19
Y21: P 2.42; N 2.3; M 2.58; S 1.66; C 3.01; K 2.65; D 3.33; W 2.62; H 2.32; F 3.24; Q 3.37; G 3.61; A 1.46; E 2.28; I 2.42; L 3.39; V 2.17; R 2.32; T 2.79
L19: M 2.76; G 3.14; K 2.67; H 1.56; W 2.91; I 3.35; D 3.31; S 3.48; Q 3.21; Y 2.48; C 2.05; E 4.42; P 3.45; R 2.95; T 1.82; N 3.02; F 2.77; A 3.32
L13: F 3.1; M 3.13; V 1.79; P 3.15; N 2.58; E 2.44; G 3.93; I 3.27; W 3.72; R 3.24; T 3.42; S 3.71; Q 2.92; D 2.7; C 1.85; Y 2.83; H 3.39; A 2.4
V20: C 1.34; N 2.81; I 2.23; L 3.59; K 3.48; Y 2.87; Q 3.31; W 2.84; T 3.34; D 3.38; F 2.98; A 2.12; P 2.94; R 3.41; M 3.01; S 2.32
L16: P 2.27; V 2.62; G 3.79; M 3.6; S 2.23; T 2.9; I 1.99; K 3.6; A 4.1; D 2.8; H 4.31; R 2.77; C 2.13; W 2.31; N 2.9; Q 3.17; F 2.62
G18: R 2.65; V 2.56; A 2.61; D 2.01; Y 1.86; C 3.99; L 2.61; S 3.16; P 2.88; T 2.61; F 1.55; N 2.96; W 2.52; E 2.07; Q 2.61; I 3.09; H 2.46
G17: P 2.58; R 2.35; H 2.42; D 1.51; K 3.17; E 3.26; V 2.85; Q 3.08; F 3.71; Y 2.5; I 2.35; N 2.64; W 3.38; C 3.4; L 3.46; S 3.45; T 3.94
F24: S 2.46; G 2.52; Q 2.77; P 2.79; T 3.12; W 1.83; L 2.53; V 2.5; C 2.01; H 2.07; R 3.27; E 3.85; A 2.47; Y 1.63; N 1.86; K 1.52; D 3.03
Y22: Q 3.06; I 3.12; H 3.4; M 3.54; P 3.8; D 2.55; K 1.71; T 2.95; R 2.92; C 2.53; A 3.55; W 3.83; N 2.47; F 2.59; S 1.56; E 1.54; L 3.17; V 3.2; G 3.7
I15: D 3.64; K 3.29; S 3; C 2.38; W 2.18; F 2.06; H 2.83; M 3.49; L 2.62; G 3.52; Q 2.44; E 2.52; V 4.17; T 2.54; R 2.12; P 3.21; N 1.43
I7: Y 2.74; E 1.86; L 3.54; D 2.84; Q 2.44; T 3.78; K 2.41; C 2.9; H 2.65; F 2.31; G 3.04; W 3.61; N 2.1; R 3.87; M 3.23; V 2.32
E12: A 2.13; I 2.73; P 2.64; T 2.87; F 2.17; Q 3.45; M 2.4; Y 2.01; R 2.18; C 2.57; K 2.66; L 2.33; H 2.64; G 1.55; V 2.85; W 1.82; N 1.44; S 2.68; D 2.99
K23: P 3.73; R 2.49; N 2.72; A 2.52; E 2.78; W 2.23; H 1.85; S 2.05; V 3.21; M 4.1; C 2.27; Y 2.52; F 2.1; I 2.95; T 2.41; Q 3.58; D 2.65; G 2.08
I8: M 2.81; T 3.41; N 3.11; G 1.21; R 1.95; H 4.21; L 3.04; Q 3.49; F 2.03; P 2.61; A 3.36; Y 3.31; W 2.33; V 2.56; D 3.18; K 2.87; E 2.35; S 3.02
A14: E 3.15; C 2.98; Y 3.19; Q 3.3; I 1.84; W 3.4; F 3.19; H 3.82; M 2.43; G 3.17; R 3.34; K 2.48; P 2.64; N 2.81; L 3.61; S 2.35
